Assay results taken from patent publication US20240239864A1.

Target: HLA-A2 (HLA-A*02:01) on cells (T2 cells; K562A2 cells) (human)
Experiment: T2 peptide-binding assay: T2 cells with peptide at 100 µg/mL overnight, surface HLA-A2 by flow cytometry (T2 only: 3.34E+05)

## HPV-16 E7 p11-19 peptide (from UniProt P03129 11-19)
  Mean Fluorescence Intensity (surface HLA-A2): 492000
